Measured values from US20080194611A1, “Modulation of Cell Barrier Dysfunction” (priority 2005, published 2008).

How the values were obtained:
[1] = test system: cultured epithelial cells (MDCK, T-84, Caco-2bbe); experiment: Epithelial permeability / TEER after purified PA-I; assay type: cell-based; details: MDCK monolayers; purified protein
[2] = Cecal instillation of purified PA-I with cytotoxins in mice

B1: PA-I: purified lectin/adhesin protein of P. aeruginosa (protein, UniProt Q05097 2-122, looked up)
PA-I galactophilic lectin: AWKGEVLANNEAGQVTSIIYNPGDVITIVAAGWASYGPTQKWGPQGDREHPDQGLICHDAFCGALVMKIGNSGTIPVNTGLFRWVAPNNVQGAITLIYNDVPGTYGNNSGSFSVNIGKDQS
- TEER of epithelial cells [1]: decreased the TEER of epithelial cells to the same degree as P. aeruginosa
- mortality, compound alone ([2]; cecal injection): had no effect
- mortality, combination with exotoxin A or elastase ([2]; cecal instillation, surgically stressed and sham-operated mice): induced significant mortality
